Assay results reported in paper PMC9482650, “Quantitative fragmentomics allow affinity mapping of interactomes” (Nature Communications, 2022).
Positions count from the first letter of the chain named.

T1: PDZD2_2, O15018
T1 sequence (O15018 329-429, limits assumed, looked up): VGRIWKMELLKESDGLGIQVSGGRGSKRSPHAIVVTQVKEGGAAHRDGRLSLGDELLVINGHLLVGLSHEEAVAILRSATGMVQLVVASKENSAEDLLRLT

T2: LIN7B, Q9HAP6
T2 sequence (Q9HAP6 88-185, limits assumed, looked up): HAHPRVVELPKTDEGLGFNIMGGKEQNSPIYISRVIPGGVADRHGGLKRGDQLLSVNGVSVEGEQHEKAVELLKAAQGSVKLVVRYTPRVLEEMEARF

T3: TIAM2, Q8IVF5
T3 sequence (Q8IVF5 885-986, limits assumed, looked up): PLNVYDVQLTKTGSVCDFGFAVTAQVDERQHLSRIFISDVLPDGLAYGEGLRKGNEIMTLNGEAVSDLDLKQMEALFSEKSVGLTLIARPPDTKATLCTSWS

T4: MPP6, Q9NZW5
T4 sequence (Q9NZW5 125-219, limits assumed, looked up): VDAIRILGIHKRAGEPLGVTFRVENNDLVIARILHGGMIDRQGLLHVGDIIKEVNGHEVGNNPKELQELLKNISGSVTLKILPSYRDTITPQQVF

T5: ARHGAP21, Q5T5U3
T5 sequence (Q5T5U3 45-169, limits assumed, looked up): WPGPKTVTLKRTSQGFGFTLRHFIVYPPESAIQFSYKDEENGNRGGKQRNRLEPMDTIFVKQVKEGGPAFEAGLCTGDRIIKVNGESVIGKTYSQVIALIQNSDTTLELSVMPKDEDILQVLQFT

T6: LIN7C, Q9NUP9
T6 sequence (Q9NUP9 88-185, limits assumed, looked up): T2 sequence (Q9HAP6 88-185, limits assumed, looked up) with A2S, D13E, V35I, V40I, Q65H, S79K, R89K, A96S

T7: GRIP1_4, Q9Y3R0
T7 sequence (Q9Y3R0 467-571, limits assumed, looked up): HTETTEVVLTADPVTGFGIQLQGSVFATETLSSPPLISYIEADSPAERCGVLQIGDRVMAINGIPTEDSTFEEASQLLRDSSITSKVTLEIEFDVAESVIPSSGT

T8: MPDZ_5, O75970
T8 sequence (O75970 695-796, limits assumed, looked up): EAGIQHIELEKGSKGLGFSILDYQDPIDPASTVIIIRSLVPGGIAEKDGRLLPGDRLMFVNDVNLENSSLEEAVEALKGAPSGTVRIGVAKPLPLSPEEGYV

T9: DLG3_1, Q92796
T9 sequence (Q92796 125-227, limits assumed, looked up): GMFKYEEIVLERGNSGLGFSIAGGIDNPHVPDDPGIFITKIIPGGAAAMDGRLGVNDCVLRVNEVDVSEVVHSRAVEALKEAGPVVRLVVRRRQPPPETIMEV

T10: MPDZ_10, O75970
T10 sequence (O75970 1624-1722, limits assumed, looked up): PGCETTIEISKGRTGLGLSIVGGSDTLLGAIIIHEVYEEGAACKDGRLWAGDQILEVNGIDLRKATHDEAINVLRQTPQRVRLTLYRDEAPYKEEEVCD

T11: TX1BP3, O14907
T11 sequence (O14907 10-122, limits assumed, looked up): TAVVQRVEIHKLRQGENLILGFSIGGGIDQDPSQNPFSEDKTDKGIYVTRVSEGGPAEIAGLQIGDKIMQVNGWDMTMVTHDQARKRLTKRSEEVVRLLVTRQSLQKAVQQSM

T12: SNTB1, Q13884
T12 sequence (Q13884 107-205, limits assumed, looked up): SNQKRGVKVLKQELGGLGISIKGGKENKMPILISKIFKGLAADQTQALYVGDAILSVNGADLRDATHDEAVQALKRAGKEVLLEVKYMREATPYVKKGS


Assays:
Assay in all cases: holdup assay
Parameters in all cases: key: below the threshold = too weak to quantify, mostly under pKd 3.1 to 4
Conditions in all cases: plain residues with an end cap or a label only (N-terminal biotin on a linker: ado-ado)
[1] = biological target: T1, PDZD2_2, O15018
[2] = biological target: FRMPD2_1, Q68DX3
[3] = biological target: Inadl_6, Q8NI35
[4] = biological target: SNX27, Q96L92
[5] = biological target: DLG5_1, Q8TDM6
[6] = biological target: GRASP, Q7Z6J2
[7] = biological target: T2, LIN7B, Q9HAP6
[8] = biological target: FRMPD2_2, Q68DX3
[9] = biological target: SCRIB_3, Q14160
[10] = biological target: LNX1_2, Q8TBB1
[11] = biological target: PICK1, Q9NRD5
[12] = biological target: GRID2IP_2, A4D2P6
[13] = biological target: T3, TIAM2, Q8IVF5
[14] = biological target: T4, MPP6, Q9NZW5
[15] = biological target: MAGI1_2, Q96QZ7
[16] = biological target: T5, ARHGAP21, Q5T5U3
[17] = biological target: T6, LIN7C, Q9NUP9
[18] = biological target: T7, GRIP1_4, Q9Y3R0
[19] = biological target: T8, MPDZ_5, O75970
[20] = biological target: T9, DLG3_1, Q92796
[21] = biological target: LAP2, Q96RT1
[22] = biological target: T10, MPDZ_10, O75970
[23] = biological target: T11, TX1BP3, O14907
[24] = biological target: AHNAK1, Q09666
[25] = biological target: T12, SNTB1, Q13884

Sequence of LAP2, Q96RT1 (Q96RT1 other isoform, or with tags, fused parts or gaps): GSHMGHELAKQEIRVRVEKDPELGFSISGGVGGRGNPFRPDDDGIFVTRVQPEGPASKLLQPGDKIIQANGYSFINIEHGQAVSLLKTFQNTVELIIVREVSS
Sequence of MAGI1_2, Q96QZ7 (Q96QZ7 456-580): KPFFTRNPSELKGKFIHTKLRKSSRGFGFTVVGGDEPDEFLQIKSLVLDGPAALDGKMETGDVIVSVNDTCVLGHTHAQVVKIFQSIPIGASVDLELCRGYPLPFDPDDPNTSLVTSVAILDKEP
Sequence of DLG5_1, Q8TDM6 (Q8TDM6 617-713): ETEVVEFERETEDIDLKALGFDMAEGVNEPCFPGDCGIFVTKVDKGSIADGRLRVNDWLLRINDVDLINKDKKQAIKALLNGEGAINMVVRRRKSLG
Sequence of Inadl_6, Q8NI35 (Q8NI35 1058-1167): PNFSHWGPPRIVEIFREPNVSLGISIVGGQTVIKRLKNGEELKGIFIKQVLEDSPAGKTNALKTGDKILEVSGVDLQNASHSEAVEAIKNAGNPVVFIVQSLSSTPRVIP
Sequence of GRASP, Q7Z6J2 (Q7Z6J2 96-193): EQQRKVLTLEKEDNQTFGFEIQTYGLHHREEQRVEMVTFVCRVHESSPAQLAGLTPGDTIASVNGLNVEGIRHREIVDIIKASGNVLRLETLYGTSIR
Sequence of SCRIB_3, Q14160 (Q14160 999-1103): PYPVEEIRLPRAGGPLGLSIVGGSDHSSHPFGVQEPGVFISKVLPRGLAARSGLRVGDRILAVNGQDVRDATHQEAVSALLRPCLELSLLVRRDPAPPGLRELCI
Sequence of FRMPD2_2, Q68DX3 (Q68DX3 944-1038): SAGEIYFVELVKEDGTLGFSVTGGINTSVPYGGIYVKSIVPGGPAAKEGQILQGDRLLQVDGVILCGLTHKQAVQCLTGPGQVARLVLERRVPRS
Sequence of AHNAK1, Q09666 (Q09666 4-100): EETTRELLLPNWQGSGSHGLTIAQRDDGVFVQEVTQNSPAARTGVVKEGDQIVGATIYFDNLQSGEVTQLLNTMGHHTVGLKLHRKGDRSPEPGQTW
Sequence of PICK1, Q9NRD5 (Q9NRD5 17-115): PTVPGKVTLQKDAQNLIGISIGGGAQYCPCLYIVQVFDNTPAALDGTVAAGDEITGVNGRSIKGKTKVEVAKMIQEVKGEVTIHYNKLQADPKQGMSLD
Sequence of GRID2IP_2, A4D2P6 (A4D2P6 272-370): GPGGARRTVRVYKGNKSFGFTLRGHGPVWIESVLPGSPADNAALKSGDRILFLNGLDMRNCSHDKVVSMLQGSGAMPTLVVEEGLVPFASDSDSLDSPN
Sequence of LNX1_2, Q8TBB1 (Q8TBB1 371-470): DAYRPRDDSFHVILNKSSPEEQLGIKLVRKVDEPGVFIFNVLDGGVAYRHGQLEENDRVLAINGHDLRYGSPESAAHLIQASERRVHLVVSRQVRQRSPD
Sequence of FRMPD2_1, Q68DX3 (Q68DX3 770-861): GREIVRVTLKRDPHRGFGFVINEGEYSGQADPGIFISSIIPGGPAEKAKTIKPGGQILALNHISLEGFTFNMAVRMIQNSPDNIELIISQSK

| Binder | pKd [1] | pKd [2] | pKd [3] | pKd [4] | pKd [5] | pKd [6] | pKd [7] | pKd [8] | pKd [9] | pKd [10] | pKd [11] | pKd [12] | pKd [13] | pKd [14] | pKd [15] | pKd [16] | pKd [17] | pKd [18] | pKd [19] | pKd [20] | further results |
| --- | --- | --- | --- | --- | --- | --- | --- | --- | --- | --- | --- | --- | --- | --- | --- | --- | --- | --- | --- | --- | --- |
| QSLNRMEYIV [JAG1, P78504] | below the threshold | 3.89 | below the threshold | below the threshold | below the threshold | below the threshold | below the threshold | below the threshold | below the threshold | 4.51 | below the threshold | below the threshold | 4.18 | 3.9 | below the threshold | below the threshold | 3.53 | below the threshold | 4.07 | below the threshold | pKd [21]: below the threshold; pKd [22]: below the threshold; pKd [23]: below the threshold; pKd [24]: below the threshold; pKd [25]: below the threshold |
| VRNLPESEEL [MYOZ3, Q8TDC0] | below the threshold | below the threshold | below the threshold | 3.71 | below the threshold | 3.74 | below the threshold | below the threshold | below the threshold | below the threshold | 4.05 | below the threshold | below the threshold | 3.64 | below the threshold | 3.59 | below the threshold | below the threshold | below the threshold | below the threshold | pKd [21]: below the threshold; pKd [22]: below the threshold; pKd [23]: below the threshold; pKd [24]: below the threshold; pKd [25]: below the threshold |

Second part, led by results:

| pKd [1] | pKd [2] | pKd [3] | pKd [4] | pKd [5] | pKd [6] | pKd [7] | pKd [8] | pKd [9] | pKd [10] | pKd [11] | pKd [12] | pKd [13] | pKd [14] | pKd [15] | pKd [16] | pKd [17] | pKd [18] | pKd [19] | pKd [20] | Binder | further results |
| --- | --- | --- | --- | --- | --- | --- | --- | --- | --- | --- | --- | --- | --- | --- | --- | --- | --- | --- | --- | --- | --- |
| 3.53 | below the threshold | below the threshold | 5.18 | below the threshold | 4.29 | 3.66 | 3.63 | below the threshold | 3.54 | 4.27 | 3.84 | below the threshold | below the threshold | 4.23 | 3.73 | below the threshold | below the threshold | below the threshold | below the threshold | LPHGHSTTRV [NLGN4X, Q8N0W4] | pKd [21]: 3.67; pKd [22]: 3.83; pKd [23]: below the threshold; pKd [24]: below the threshold; pKd [25]: 4.27 |
| below the threshold | below the threshold | below the threshold | 4.95 | below the threshold | 4.07 | 3.71 | below the threshold | below the threshold | below the threshold | 4.02 | below the threshold | 4.13 | below the threshold | below the threshold | below the threshold | 4.12 | below the threshold | below the threshold | below the threshold | GNSVLKSTQF [SLC22A12, Q96S37] | pKd [21]: below the threshold; pKd [22]: below the threshold; pKd [23]: below the threshold; pKd [24]: below the threshold; pKd [25]: below the threshold |
